Substrate: O=C(O)C(=O)O
Experiment: purified protein
Conditions: pH 4.2 (optimum), 52 mM sodium acetate, 140 mM NaCl, 37 °C, potassium oxalate 0-150 mM, Mn enzyme

Protein	Km [mM]	kcat [s⁻¹]	kcat/Km [M⁻¹ s⁻¹]
Oxalate decarboxylase (OxDC) (Bacillus subtilis subsp. subtilis str. 168; H279D/T263E) (protein) MKKQNDIPQPIRGDKGATVKIPRNIERDRQNPDMLVPPETDHGTVSNMKFSFSDTHNRLEKGGYAREVTVRELPISENLASVNMRLKPGAIRELHWHKEAEWAYMIYGSARVTIVDEKGRSFIDDVGEGDLWYFPSGLPHSIQALEEGAEFLLVFDDGSFSENSTFQLTDWLAHTPKEVIAANFGVTKEEISNLPGKEKYIFENQLPGSLKDDIVEGPNGEVPYPFTYRLLEQEPIESEGGKVYIADSTNFKVSKTIASALVEVEPGAMRELHWHPNTDEWQYYISGKARMTVFASDGHARTFNYQAGDVGYVPFAMGHYVENIGDEPLVFLEIFKDDHYADVSLNQWLAMLPETFVQAHLDLGKDFTDVLSKEKHPVVKKKCSK	5 ± 1	111	22000
Oxalate decarboxylase (OxDC) (Bacillus subtilis subsp. subtilis str. 168; H279D/I191F) (protein) MKKQNDIPQPIRGDKGATVKIPRNIERDRQNPDMLVPPETDHGTVSNMKFSFSDTHNRLEKGGYAREVTVRELPISENLASVNMRLKPGAIRELHWHKEAEWAYMIYGSARVTIVDEKGRSFIDDVGEGDLWYFPSGLPHSIQALEEGAEFLLVFDDGSFSENSTFQLTDWLAHTPKEVIAANFGVTKEEFSNLPGKEKYIFENQLPGSLKDDIVEGPNGEVPYPFTYRLLEQEPIESEGGKVYIADSTNFKVSKTIASALVTVEPGAMRELHWHPNTDEWQYYISGKARMTVFASDGHARTFNYQAGDVGYVPFAMGHYVENIGDEPLVFLEIFKDDHYADVSLNQWLAMLPETFVQAHLDLGKDFTDVLSKEKHPVVKKKCSK	5 ± 2	110	22000
Oxalate decarboxylase (OxDC) (Bacillus subtilis subsp. subtilis str. 168) (protein) MKKQNDIPQPIRGDKGATVKIPRNIERDRQNPDMLVPPETDHGTVSNMKFSFSDTHNRLEKGGYAREVTVRELPISENLASVNMRLKPGAIRELHWHKEAEWAYMIYGSARVTIVDEKGRSFIDDVGEGDLWYFPSGLPHSIQALEEGAEFLLVFDDGSFSENSTFQLTDWLAHTPKEVIAANFGVTKEEISNLPGKEKYIFENQLPGSLKDDIVEGPNGEVPYPFTYRLLEQEPIESEGGKVYIADSTNFKVSKTIASALVTVEPGAMRELHWHPNTHEWQYYISGKARMTVFASDGHARTFNYQAGDVGYVPFAMGHYVENIGDEPLVFLEIFKDDHYADVSLNQWLAMLPETFVQAHLDLGKDFTDVLSKEKHPVVKKKCSK	7 ± 2	103	15000
Oxalate decarboxylase (OxDC) (Bacillus subtilis subsp. subtilis str. 168; I191F/T263E) (protein) MKKQNDIPQPIRGDKGATVKIPRNIERDRQNPDMLVPPETDHGTVSNMKFSFSDTHNRLEKGGYAREVTVRELPISENLASVNMRLKPGAIRELHWHKEAEWAYMIYGSARVTIVDEKGRSFIDDVGEGDLWYFPSGLPHSIQALEEGAEFLLVFDDGSFSENSTFQLTDWLAHTPKEVIAANFGVTKEEFSNLPGKEKYIFENQLPGSLKDDIVEGPNGEVPYPFTYRLLEQEPIESEGGKVYIADSTNFKVSKTIASALVEVEPGAMRELHWHPNTHEWQYYISGKARMTVFASDGHARTFNYQAGDVGYVPFAMGHYVENIGDEPLVFLEIFKDDHYADVSLNQWLAMLPETFVQAHLDLGKDFTDVLSKEKHPVVKKKCSK	5 ± 1	37	7000
Oxalate decarboxylase (OxDC) (Bacillus subtilis subsp. subtilis str. 168; I191F) (protein) MKKQNDIPQPIRGDKGATVKIPRNIERDRQNPDMLVPPETDHGTVSNMKFSFSDTHNRLEKGGYAREVTVRELPISENLASVNMRLKPGAIRELHWHKEAEWAYMIYGSARVTIVDEKGRSFIDDVGEGDLWYFPSGLPHSIQALEEGAEFLLVFDDGSFSENSTFQLTDWLAHTPKEVIAANFGVTKEEFSNLPGKEKYIFENQLPGSLKDDIVEGPNGEVPYPFTYRLLEQEPIESEGGKVYIADSTNFKVSKTIASALVTVEPGAMRELHWHPNTHEWQYYISGKARMTVFASDGHARTFNYQAGDVGYVPFAMGHYVENIGDEPLVFLEIFKDDHYADVSLNQWLAMLPETFVQAHLDLGKDFTDVLSKEKHPVVKKKCSK	7 ± 2	101	14000
Oxalate decarboxylase (OxDC) (Bacillus subtilis subsp. subtilis str. 168; Y244R) (protein) MKKQNDIPQPIRGDKGATVKIPRNIERDRQNPDMLVPPETDHGTVSNMKFSFSDTHNRLEKGGYAREVTVRELPISENLASVNMRLKPGAIRELHWHKEAEWAYMIYGSARVTIVDEKGRSFIDDVGEGDLWYFPSGLPHSIQALEEGAEFLLVFDDGSFSENSTFQLTDWLAHTPKEVIAANFGVTKEEISNLPGKEKYIFENQLPGSLKDDIVEGPNGEVPYPFTYRLLEQEPIESEGGKVRIADSTNFKVSKTIASALVTVEPGAMRELHWHPNTHEWQYYISGKARMTVFASDGHARTFNYQAGDVGYVPFAMGHYVENIGDEPLVFLEIFKDDHYADVSLNQWLAMLPETFVQAHLDLGKDFTDVLSKEKHPVVKKKCSK	5 ± 1	95	19000
Oxalate decarboxylase (OxDC) (Bacillus subtilis subsp. subtilis str. 168; H279D) (protein) MKKQNDIPQPIRGDKGATVKIPRNIERDRQNPDMLVPPETDHGTVSNMKFSFSDTHNRLEKGGYAREVTVRELPISENLASVNMRLKPGAIRELHWHKEAEWAYMIYGSARVTIVDEKGRSFIDDVGEGDLWYFPSGLPHSIQALEEGAEFLLVFDDGSFSENSTFQLTDWLAHTPKEVIAANFGVTKEEISNLPGKEKYIFENQLPGSLKDDIVEGPNGEVPYPFTYRLLEQEPIESEGGKVYIADSTNFKVSKTIASALVTVEPGAMRELHWHPNTDEWQYYISGKARMTVFASDGHARTFNYQAGDVGYVPFAMGHYVENIGDEPLVFLEIFKDDHYADVSLNQWLAMLPETFVQAHLDLGKDFTDVLSKEKHPVVKKKCSK	6 ± 2	58	10000

Source: PMC11966277
